Reference: the supplement of paper PMC7877785
± gives the uncertainty stated by the source.

Assay: self-splicing fitness, log relative to wild type (ln ratio); higher = more splicing; Tetrahymena group I intron in knt gene, E. coli kanamycin selection, DiMSum; sequences stand for … in CUCUCU…GGAGGGAAAAGUUAUCAGGCAUGCACCUGGUAGCUAGUCUUUAAACCAAUAGAUUGCAUCGGUUUAAAAGGCAAGACCGUCAAAUUGCGGGAAAGGGGUCAACAGCCGUUCAGUACCAAGUCUCAGGGGAAACUUUGAGAUGGCCUUGCAAAGGGUAUGGUAAUAAGCUGACGGACAUGGUCCUAACCACGCAGCCAAGUCCUAAGUCAACAGAUCUUCUGUUGAUAUGGAUGCAGUUCACAGACUAAAUGUCGGUCGGGGAAGAUGUAUUCUUCUCAUAAGAUAUAGUCGGACCUCUCCUUAAUGGGAGCUAGCGGAUGAAGUGAUGCAACACUGGAGCCGCUGGGAACUAAUUUGUAUGCGAAAGUAUAUUGAUUAGUUUUGGAGUACUCGUGGUCG
Procedure, shortened: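 Six replicate transformations of E. coli BL21(DE3) with a pET-22b(+) library were grown overnight at 37°C or 30°C. The library randomised all eight P1ex-region intron nucleotides, the intron lying in the knt kanamycin-resistance gene, and plates were LB agar with or without 25 μg/mL kanamycin plus 100 μg/mL carbenicillin, 50 μM IPTG and 0.2% rhamnose. Pooled colonies were amplicon-sequenced on an Illumina HiSeq 2500, and fitness is the DiMSum error-weighted combination of wild-type-normalised replicate fold changes, kanamycin versus none.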

Sequence	self-splicing fitness (ln) (30 °C)	self-splicing fitness (ln) (37 °C)
UUACAGCAAUAUUACGCGGG	-2.33 ± 0.14	-0.688 ± 0.12
GGCAAGCAAUAUUACGAUGU	-2.19 ± 0.12	-1.44 ± 0.13
GGCUAGCAAUAUUACGCUGC	-3.21 ± 0.19	-2.65 ± 0.19
CGUAAGCAAUAUUACGAUUA	-2.03 ± 0.23	-1.64 ± 0.32
CGGGAGCAAUAUUACGAUAA	-3.16 ± 0.25	-2.57 ± 0.39
GAUAAGCAAUAUUACGAGCU	-0.688 ± 0.11	-1.13 ± 0.12
CUGUAGCAAUAUUACGGUCG	-0.455 ± 0.09	0.323 ± 0.12
CAUCAGCAAUAUUACGGAGU	-2.65 ± 0.12	-0.842 ± 0.11
GCAUAGCAAUAUUACGAAUU	-2.48 ± 0.2	-1.61 ± 0.2
ACGUAGCAAUAUUACGGCGG	-1.65 ± 0.1	-0.812 ± 0.11
GUCCAGCAAUAUUACGAAGC	-0.345 ± 0.072	-0.167 ± 0.085
AAUAAGCAAUAUUACGGUAG	-3.77 ± 0.24	-1.95 ± 0.21
GGACAGCAAUAUUACGGGAA	-2.7 ± 0.1	-1.04 ± 0.083
GAGUAGCAAUAUUACGACCU	0.288 ± 0.14	-1.02 ± 0.16
CCGCAGCAAUAUUACGCGCU	-3.09 ± 0.21	-2.01 ± 0.23
GAGCAGCAAUAUUACGUGUC	-2.9 ± 0.12	-2.01 ± 0.12
CCGUAGCAAUAUUACGAGAU	-3.86 ± 0.32	-2.29 ± 0.3
CGCCAGCAAUAUUACGUGUU	-3.08 ± 0.14	-3.21 ± 0.18
CCUUAGCAAUAUUACGCGUC	-4.42 ± 0.39	-2.91 ± 0.31
CUGCAGCAAUAUUACGCAAA	-2.18 ± 0.2	-3.55 ± 0.24

Sequence	self-splicing fitness (ln) (30 °C)	self-splicing fitness (ln) (37 °C)
CAGAAGCAAUAUUACGCUCU	-4.2 ± 0.24	-2.41 ± 0.17
UUUAAGCAAUAUUACGGAGG	-2.95 ± 0.22	-2.18 ± 0.27
GCUUAGCAAUAUUACGUCUU	-1.1 ± 0.1	-0.549 ± 0.12
ACGAAGCAAUAUUACGCGCU	-1.01 ± 0.09	0.163 ± 0.12
CCACAGCAAUAUUACGCCUC	-2.9 ± 0.26	-2.58 ± 0.35
ACGCAGCAAUAUUACGAACA	-1.75 ± 0.081	-1.36 ± 0.086
CCACAGCAAUAUUACGAGUC	-3.55 ± 0.24	-2.7 ± 0.22
UCUUAGCAAUAUUACGUAAC	-3.34 ± 0.26	-1.95 ± 0.32
AAAAAGCAAUAUUACGCUUG	-1.69 ± 0.087	-0.744 ± 0.1
CCUGAGCAAUAUUACGGGCA	-2.93 ± 0.19	-1.83 ± 0.17
UGAGAGCAAUAUUACGUUUA	-3.46 ± 0.39	
AGGGAGCAAUAUUACGAGUG	-3.39 ± 0.36	-2.37 ± 0.3
AACGAGCAAUAUUACGGUAA	-4.2 ± 0.42	-2.47 ± 0.28
GACCAGCAAUAUUACGUUAG	-3.82 ± 0.24	-2.79 ± 0.2
CACGAGCAAUAUUACGCCGC	-2.93 ± 0.35	-1.33 ± 0.48
UAACAGCAAUAUUACGAUAA	-1.1 ± 0.076	-0.209 ± 0.08
GACUAGCAAUAUUACGUCCA	-2.24 ± 0.29	-1.47 ± 0.26
GCACAGCAAUAUUACGGCUA	-0.204 ± 0.081	-0.393 ± 0.085
CGAGAGCAAUAUUACGAAAC	-2.91 ± 0.36	-1.97 ± 0.48
UCGAAGCAAUAUUACGAGAC	-3.11 ± 0.22	

Sequence	self-splicing fitness (ln) (30 °C)	self-splicing fitness (ln) (37 °C)
CAUAAGCAAUAUUACGACCA		-2.1 ± 0.36
GGUUAGCAAUAUUACGAUAC	-0.314 ± 0.22	-0.0363 ± 0.19
UCACAGCAAUAUUACGUUUA	-2.53 ± 0.13	-0.819 ± 0.082
GCGGAGCAAUAUUACGGGGA	-2.69 ± 0.39	-3.38 ± 0.42
ACCAAGCAAUAUUACGGCUU	-3.85 ± 0.2	-1.85 ± 0.16
UUCUAGCAAUAUUACGAUGU	-3.53 ± 0.42	-1.66 ± 0.2
UGAUAGCAAUAUUACGUUGU	-4.45 ± 0.29	-2.98 ± 0.21
GAGCAGCAAUAUUACGCGAC	-3.05 ± 0.49	-1.13 ± 0.29
CUCCAGCAAUAUUACGCUCA	-2.97 ± 0.17	-2.31 ± 0.19
GACAAGCAAUAUUACGUGGC	-4.6 ± 0.32	-1.61 ± 0.11
AAGUAGCAAUAUUACGAUUU	0.429 ± 0.06	0.104 ± 0.075
GUUGAGCAAUAUUACGCGAU	-3.79 ± 0.3	-2.47 ± 0.34
UCUUAGCAAUAUUACGUAGC	-3.98 ± 0.46	-1.98 ± 0.21
GGGCAGCAAUAUUACGUUGC	-3.77 ± 0.16	-1.95 ± 0.19
GAACAGCAAUAUUACGACCG	-1.25 ± 0.14	-0.315 ± 0.17
UGCGAGCAAUAUUACGCUUA	-1.98 ± 0.16	-1.46 ± 0.22
GCUGAGCAAUAUUACGACCU	-2.35 ± 0.26	-1.15 ± 0.33
GCUUAGCAAUAUUACGCAUG	-2.06 ± 0.27	-0.0774 ± 0.2
AUAAAGCAAUAUUACGUAAU	-0.762 ± 0.081	-0.869 ± 0.094
UUGCAGCAAUAUUACGAGCU	-2.6 ± 0.1	-1.37 ± 0.11
